{"source": "patent US20240376196A1", "about": "(HEFEI TG IMMUNOPHARMA, published 2024)", "key": {"[1]": {"molecular_target": "T1, human CD112 extracellular region His tag fusion protein (human, UniProt Q92692 32-360)", "T1 construct": "Bought from Acro; only its extracellular domain stood in the assay; also called CD112-His; CD112 extracellular domain His tag fusion protein; not shown: His tag", "T1 sequence": "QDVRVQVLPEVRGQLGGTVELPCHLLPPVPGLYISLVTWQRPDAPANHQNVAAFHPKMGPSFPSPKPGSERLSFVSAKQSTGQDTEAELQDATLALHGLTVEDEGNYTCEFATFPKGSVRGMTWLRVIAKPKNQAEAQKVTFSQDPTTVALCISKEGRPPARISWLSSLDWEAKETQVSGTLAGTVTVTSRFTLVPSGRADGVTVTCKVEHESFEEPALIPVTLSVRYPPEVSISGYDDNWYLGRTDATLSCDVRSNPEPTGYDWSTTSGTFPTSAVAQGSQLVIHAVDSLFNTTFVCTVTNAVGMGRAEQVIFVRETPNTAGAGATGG", "assay": "competition ELISA, CD112-His coated, blocked ligand TIGIT-Biotin, HRP-streptavidin, OD450", "description": "(§1) The ELISA experiment was used to determine the blocking characteristic of the murine antibody CD112 9G11 antibody.\n(§2) The human CD112-His protein (purchased from Acro) was diluted to 2 μg/ml with PBS buffer and added to a 96-well plate in a volume of 100 μl/well and left overnight at 4° C. The PBS buffer solution was sucked off from the 96-well plate. The plate was washed 6 times with PBST (pH 7.2, PBS containing 0.1 vol % of Tween 20) buffer solution. 200 μL of PBS containing 10% BSA was added per well and incubated at 37° C. for 2 hours for blocking. The blocking solution was removed and the plate was washed 6 times with PBST. […] The reaction system was removed. The plate was washed 6 times with PBST. 100 μL of HRP (horseradish peroxidase)-labeled Streptavidin secondary (purchased from Southern Biotech) antibody diluted with PBST containing 0.05% BSA (diluted at 1:5000) per well and incubated for 1 h at 37° C. The plate was washed 6 times with PBST, and 80 μL of TMB (tetramethylbenzidine) was added per well. After 3 min of incubation at room temperature, 80 μL of 4M sulfuric acid was added per well to terminate the reaction. The absorbance was read at […] with a microplate reader."}, "[2]": {"molecular_target": "T1, human CD112 extracellular region His …", "assay": "competition ELISA, CD112-His coated, blocked ligand CD226-Biotin, HRP-streptavidin, OD450", "description": "as §1, §2"}, "[3]": {"molecular_target": "T1, human CD112 extracellular region His …", "assay": "competition ELISA, CD112-His coated, blocked ligand CD112R-Fc-Biotin, HRP-streptavidin, OD450", "description": "as §1, §2"}}, "data": [{"binder": "murine monoclonal antibody 9G11 (antibody, mouse IgG2a, kappa, also called 9G11 antibody; CD112 murine antibody 9G11) heavy: DVKLVESGGGLVKLGGSLKLSCAASGFTFSSYYMSWVRQTPEKRLELVAAINSQGGSTYYPDTVKGRFTISRDNAKNTLYLQMSSLKSEDTGLYYCARSDYDWAWFAYWGQGTLVTVSAAKTTAPSVYPLAPVCGDTTGSSVTLGCLVKGYFPEPVTLTWNSGSLSSGVHTFPAVLQSDLYTLSSSVTVTSSTWPSQSITCNVAHPASSTKVDKKIEPRGPTIKPCPPCKCPAPNLLGGPSVFIFPPKIKDVLMISLSPIVTCVVVDVSEDDPDVQISWFVNNVEVHTAQTQTHREDYNSTLRVVSALPIQHQDWMSGKEFKCKVNNKDLPAPIERTISKPKGSVRAPQVYVLPPPEEEMTKKQVTLTCMVTDFMPEDIYVEWTNNGKTELNYKNTEPVLDSDGSYFMYSKLRVEKKNWVERNSYSCSVVHEGLHNHHTTKSFSRTPGK light: not shown", "values": [{"measurement": "IC50 (read off the curve)", "setting": "[1]", "value": "~0.5", "unit": "µg/mL"}, {"measurement": "IC50 (read off the curve)", "setting": "[2]", "value": "~6", "unit": "µg/mL"}, {"measurement": "IC50 (read off the curve)", "setting": "[3]", "value": "~0.5", "unit": "µg/mL"}]}]}
